This note sets out measurements from patent publication US20040096942A1.

The target of test [1] is GAL4DmEcR-DEF (yeast; fruit fly Drosophila melanogaster). Description: cell-based or functional assay.
The target in test [2] is GAL4CfEcR-DEF (yeast; spruce budworm Choristoneura fumiferana). Description: cell-based or functional assay.

With VP16MmRXRα(1-7)-LmUSP(8-12)-EF, the maximum fold induction of luciferase reporter, two-hybrid gene switch in NIH3T3 cells (fold induction) stood at 1760 in test [1] and 11000 in test [2].
